From patent publication US20230236179A1
Blank lines part the entries; values can stand above or below the substance they belong to.

Tests used:
[1] = target: human Brachyury protein standard (Abcam ab114235) (human) (UniProt O15178); experiment: conventional Simoa sandwich (capture beads + detector m8), 300 pM SβG/15 min; Brachyury at 0.24 fM
[2] = target: human Brachyury protein standard (Abcam ab114235) (human) (UniProt O15178); experiment: dSimoa sandwich (capture beads + detector m8), 300 pM streptavidin-DNA/15 min; Brachyury at 1.2 fM
[3] = target: human Brachyury protein standard (Abcam ab114235) (human) (UniProt O15178); experiment: conventional Simoa sandwich (capture beads + detector m8), 150 pM SβG/5 min; Brachyury at 6 fM
[4] = target: human Brachyury protein standard (Abcam ab114235) (human) (UniProt O15178); experiment: conventional Simoa sandwich (capture beads + detector m8), 300 pM SβG/15 min; Brachyury at 0.048 fM
[5] = target: human Brachyury protein standard (Abcam ab114235) (human) (UniProt O15178); experiment: conventional Simoa sandwich (capture beads + detector m8), 150 pM SβG/5 min; Brachyury at 30 fM
[6] = target: human Brachyury protein standard (Abcam ab114235) (human) (UniProt O15178); experiment: dSimoa sandwich (capture beads + detector m8), 300 pM streptavidin-DNA/15 min; Brachyury at 6 fM
[7] = target: human Brachyury protein standard (Abcam ab114235) (human) (UniProt O15178); experiment: dSimoa sandwich (capture beads + detector m8), 300 pM streptavidin-DNA/15 min; Brachyury at 150 fM
[8] = target: human Brachyury protein standard (Abcam ab114235) (human) (UniProt O15178); experiment: conventional Simoa sandwich (capture beads + detector m8), 150 pM SβG/5 min; Brachyury at 150 fM
[9] = target: human Brachyury protein standard (Abcam ab114235) (human) (UniProt O15178); experiment: conventional Simoa sandwich (capture beads + detector m8), 150 pM SβG/5 min; Brachyury at 1.2 fM
[10] = target: human Brachyury protein standard (Abcam ab114235) (human) (UniProt O15178); experiment: conventional Simoa sandwich (capture beads + detector m8), 150 pM SβG/5 min; Brachyury at 0.048 fM
[11] = target: human Brachyury protein standard (Abcam ab114235) (human) (UniProt O15178); experiment: conventional Simoa sandwich (capture beads + detector m8), 300 pM SβG/15 min; Brachyury at 1500 fM
[12] = target: human Brachyury protein standard (Abcam ab114235) (human) (UniProt O15178); experiment: dSimoa sandwich (capture beads + detector m8), 300 pM streptavidin-DNA/15 min; Brachyury at 0.24 fM
[13] = target: human Brachyury protein standard (Abcam ab114235) (human) (UniProt O15178); experiment: conventional Simoa sandwich (capture beads + detector m8), 300 pM SβG/15 min; Brachyury at 30 fM
[14] = target: human Brachyury protein standard (Abcam ab114235) (human) (UniProt O15178); experiment: conventional Simoa sandwich (capture beads + detector m8), 300 pM SβG/15 min; Brachyury at 6 fM
[15] = target: human Brachyury protein standard (Abcam ab114235) (human) (UniProt O15178); experiment: conventional Simoa sandwich (capture beads + detector m8), 300 pM SβG/15 min; Brachyury at 150 fM
[16] = target: human Brachyury protein standard (Abcam ab114235) (human) (UniProt O15178); experiment: dSimoa sandwich (capture beads + detector m8), 300 pM streptavidin-DNA/15 min; Brachyury at 0.048 fM
[17] = target: human Brachyury protein standard (Abcam ab114235) (human) (UniProt O15178); experiment: dSimoa sandwich (capture beads + detector m8), 300 pM streptavidin-DNA/15 min; Brachyury at 30 fM
[18] = target: human Brachyury protein standard (Abcam ab114235) (human) (UniProt O15178); experiment: conventional Simoa sandwich (capture beads + detector m8), 150 pM SβG/5 min; Brachyury at 0.24 fM
[19] = target: human Brachyury protein standard (Abcam ab114235) (human) (UniProt O15178); experiment: conventional Simoa sandwich (capture beads + detector m8), 300 pM SβG/15 min; Brachyury at 1.2 fM
[20] = target: human Brachyury protein standard (Abcam ab114235) (human) (UniProt O15178); experiment: conventional Simoa sandwich (capture beads + detector m8), 150 pM SβG/5 min; Brachyury at 1500 fM
[21] = target: IL-6 protein standard (R&D Systems 206-IL-010) (UniProt P05231); experiment: CARD-dELISA sandwich (capture beads + detection antibody m11, streptavidin-poly-HRP, tyramide); IL-6 at 0.5 fM
[22] = target: IL-6 protein standard (R&D Systems 206-IL-010) (UniProt P05231); experiment: conventional Simoa sandwich on HD-1 (capture beads + detection antibody m11, SβG); IL-6 at 0.1 fM
[23] = target: IL-6 protein standard (R&D Systems 206-IL-010) (UniProt P05231); experiment: conventional Simoa sandwich on HD-1 (capture beads + detection antibody m11, SβG); IL-6 at 0.5 fM
[24] = target: IL-6 protein standard (R&D Systems 206-IL-010) (UniProt P05231); experiment: CARD-dELISA sandwich (capture beads + detection antibody m11, streptavidin-poly-HRP, tyramide); IL-6 at 50 fM
[25] = target: IL-6 protein standard (R&D Systems 206-IL-010) (UniProt P05231); experiment: conventional Simoa sandwich on HD-1 (capture beads + detection antibody m11, SβG); IL-6 at 50 fM
[26] = target: IL-6 protein standard (R&D Systems 206-IL-010) (UniProt P05231); experiment: CARD-dELISA sandwich (capture beads + detection antibody m11, streptavidin-poly-HRP, tyramide); IL-6 at 1 fM
[27] = target: IL-6 protein standard (R&D Systems 206-IL-010) (UniProt P05231); experiment: CARD-dELISA sandwich (capture beads + detection antibody m11, streptavidin-poly-HRP, tyramide); IL-6 at 100 fM
[28] = target: IL-6 protein standard (R&D Systems 206-IL-010) (UniProt P05231); experiment: CARD-dELISA sandwich (capture beads + detection antibody m11, streptavidin-poly-HRP, tyramide); IL-6 at 0.1 fM
[29] = target: IL-6 protein standard (R&D Systems 206-IL-010) (UniProt P05231); experiment: CARD-dELISA sandwich (capture beads + detection antibody m11, streptavidin-poly-HRP, tyramide); IL-6 at 10 fM
[30] = target: IL-6 protein standard (R&D Systems 206-IL-010) (UniProt P05231); experiment: conventional Simoa sandwich on HD-1 (capture beads + detection antibody m11, SβG); IL-6 at 10 fM
[31] = target: IL-6 protein standard (R&D Systems 206-IL-010) (UniProt P05231); experiment: conventional Simoa sandwich on HD-1 (capture beads + detection antibody m11, SβG); IL-6 at 100 fM
[32] = target: IL-6 protein standard (R&D Systems 206-IL-010) (UniProt P05231); experiment: conventional Simoa sandwich on HD-1 (capture beads + detection antibody m11, SβG); IL-6 at 1 fM
[33] = target: human interleukin-10 (IL-10) protein standard (printed as Biolegend 501501) (human) (UniProt P22301); experiment: conventional Simoa sandwich (capture beads + detector m5), 150 pM SβG/15 min; IL-10 at 0.024 fM
[34] = target: human interleukin-10 (IL-10) protein standard (printed as Biolegend 501501) (human) (UniProt P22301); experiment: conventional Simoa sandwich (capture beads + detector m5), 150 pM SβG/15 min; IL-10 at 0.12 fM
[35] = target: human interleukin-10 (IL-10) protein standard (printed as Biolegend 501501) (human) (UniProt P22301); experiment: conventional Simoa sandwich (capture beads + detector m5), 150 pM SβG/5 min; IL-10 at 0.6 fM
[36] = target: human interleukin-10 (IL-10) protein standard (printed as Biolegend 501501) (human) (UniProt P22301); experiment: conventional Simoa sandwich (capture beads + detector m5), 150 pM SβG/5 min; IL-10 at 75 fM
[37] = target: human interleukin-10 (IL-10) protein standard (printed as Biolegend 501501) (human) (UniProt P22301); experiment: conventional Simoa sandwich (capture beads + detector m5), 150 pM SβG/5 min; IL-10 at 0.12 fM
[38] = target: human interleukin-10 (IL-10) protein standard (printed as Biolegend 501501) (human) (UniProt P22301); experiment: dSimoa sandwich (capture beads + detector m5), 150 pM streptavidin-DNA/15 min; IL-10 at 0.6 fM
[39] = target: human interleukin-10 (IL-10) protein standard (printed as Biolegend 501501) (human) (UniProt P22301); experiment: conventional Simoa sandwich (capture beads + detector m5), 150 pM SβG/5 min; IL-10 at 0.024 fM
[40] = target: human interleukin-10 (IL-10) protein standard (printed as Biolegend 501501) (human) (UniProt P22301); experiment: dSimoa sandwich (capture beads + detector m5), 150 pM streptavidin-DNA/15 min; IL-10 at 0.12 fM
[41] = target: human interleukin-10 (IL-10) protein standard (printed as Biolegend 501501) (human) (UniProt P22301); experiment: conventional Simoa sandwich (capture beads + detector m5), 150 pM SβG/5 min; IL-10 at 0.0048 fM
[42] = target: human interleukin-10 (IL-10) protein standard (printed as Biolegend 501501) (human) (UniProt P22301); experiment: conventional Simoa sandwich (capture beads + detector m5), 150 pM SβG/15 min; IL-10 at 75 fM
[43] = target: human interleukin-10 (IL-10) protein standard (printed as Biolegend 501501) (human) (UniProt P22301); experiment: dSimoa sandwich (capture beads + detector m5), 150 pM streptavidin-DNA/15 min; IL-10 at 15 fM
[44] = target: human interleukin-10 (IL-10) protein standard (printed as Biolegend 501501) (human) (UniProt P22301); experiment: dSimoa sandwich (capture beads + detector m5), 150 pM streptavidin-DNA/15 min; IL-10 at 0.00096 fM
[45] = target: human interleukin-10 (IL-10) protein standard (printed as Biolegend 501501) (human) (UniProt P22301); experiment: conventional Simoa sandwich (capture beads + detector m5), 150 pM SβG/5 min; IL-10 at 3 fM
[46] = target: human interleukin-10 (IL-10) protein standard (printed as Biolegend 501501) (human) (UniProt P22301); experiment: dSimoa sandwich (capture beads + detector m5), 150 pM streptavidin-DNA/15 min; IL-10 at 0.0048 fM
[47] = target: human interleukin-10 (IL-10) protein standard (printed as Biolegend 501501) (human) (UniProt P22301); experiment: conventional Simoa sandwich (capture beads + detector m5), 150 pM SβG/15 min; IL-10 at 0.6 fM
[48] = target: human interleukin-10 (IL-10) protein standard (printed as Biolegend 501501) (human) (UniProt P22301); experiment: conventional Simoa sandwich (capture beads + detector m5), 150 pM SβG/15 min; IL-10 at 15 fM
[49] = target: human interleukin-10 (IL-10) protein standard (printed as Biolegend 501501) (human) (UniProt P22301); experiment: conventional Simoa sandwich (capture beads + detector m5), 150 pM SβG/15 min; IL-10 at 3 fM
[50] = target: human interleukin-10 (IL-10) protein standard (printed as Biolegend 501501) (human) (UniProt P22301); experiment: conventional Simoa sandwich (capture beads + detector m5), 150 pM SβG/15 min; IL-10 at 0.0048 fM
[51] = target: human interleukin-10 (IL-10) protein standard (printed as Biolegend 501501) (human) (UniProt P22301); experiment: dSimoa sandwich (capture beads + detector m5), 150 pM streptavidin-DNA/15 min; IL-10 at 0.024 fM
[52] = target: human interleukin-10 (IL-10) protein standard (printed as Biolegend 501501) (human) (UniProt P22301); experiment: conventional Simoa sandwich (capture beads + detector m5), 150 pM SβG/5 min; IL-10 at 15 fM
[53] = target: human interleukin-10 (IL-10) protein standard (printed as Biolegend 501501) (human) (UniProt P22301); experiment: dSimoa sandwich (capture beads + detector m5), 150 pM streptavidin-DNA/15 min; IL-10 at 3 fM

UniProt P22301, sequence (P22301 19-178 limits assumed): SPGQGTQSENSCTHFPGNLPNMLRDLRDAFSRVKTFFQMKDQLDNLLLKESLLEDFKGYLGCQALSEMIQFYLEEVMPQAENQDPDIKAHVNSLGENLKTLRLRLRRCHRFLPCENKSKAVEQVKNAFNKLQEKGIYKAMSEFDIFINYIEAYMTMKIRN
UniProt P05231, sequence (P05231 30-212 limits assumed): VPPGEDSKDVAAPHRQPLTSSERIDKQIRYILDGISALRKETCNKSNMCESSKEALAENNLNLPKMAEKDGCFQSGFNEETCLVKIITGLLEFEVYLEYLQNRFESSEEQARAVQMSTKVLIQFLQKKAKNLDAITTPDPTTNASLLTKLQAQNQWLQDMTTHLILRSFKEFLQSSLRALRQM
UniProt O15178, sequence (O15178 whole entry): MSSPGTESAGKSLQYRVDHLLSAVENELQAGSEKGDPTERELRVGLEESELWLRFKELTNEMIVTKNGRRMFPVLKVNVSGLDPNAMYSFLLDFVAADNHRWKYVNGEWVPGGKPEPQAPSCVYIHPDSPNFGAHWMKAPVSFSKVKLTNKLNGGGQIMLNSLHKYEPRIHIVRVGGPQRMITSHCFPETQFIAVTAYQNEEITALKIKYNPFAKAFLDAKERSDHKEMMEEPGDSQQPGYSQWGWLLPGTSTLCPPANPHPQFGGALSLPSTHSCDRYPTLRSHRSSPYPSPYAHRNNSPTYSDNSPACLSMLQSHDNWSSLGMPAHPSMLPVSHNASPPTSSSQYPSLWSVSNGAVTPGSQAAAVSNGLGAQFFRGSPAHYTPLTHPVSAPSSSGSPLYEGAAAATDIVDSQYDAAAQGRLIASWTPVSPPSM

- average AEB [1]: 0.0395 AEB
- average AMB [2]: 0.0173 AMB
- average AEB [3]: 0.0425 AEB
- average AEB [4]: 0.0398 AEB
- average AEB [5]: 0.156 AEB
- average AMB [6]: 0.0417 AMB
- average AMB [7]: 0.825 AMB
- average AEB [8]: 0.677 AEB
- average AEB [9]: 0.0174 AEB
- average AEB [10]: 0.0108 AEB
- average AEB [11]: 14.3 AEB
- average AMB [12]: 0.0147 AMB
- average AEB [13]: 0.358 AEB
- average AEB [14]: 0.105 AEB
- average AEB [15]: 1.77 AEB
- average AMB [16]: 0.0127 AMB
- average AMB [17]: 0.156 AMB
- average AEB [18]: 0.012 AEB
- average AEB [19]: 0.0494 AEB
- average AEB [20]: 5.97 AEB
Substance: Brachyury capture antibody (Abcam ab236023)

- average AEB [21]: 0.005 AEB
- average AEB [22]: 0.005 AEB
- average AEB [23]: 0.0098 AEB
- average AEB [24]: 0.0937 AEB
- average AEB [25]: 0.522 AEB
- average AEB [26]: 0.0058 AEB
- average AEB [27]: 0.171 AEB
- average AEB [28]: 0.0031 AEB
- average AEB [29]: 0.0151 AEB
- average AEB [30]: 0.111 AEB
- average AEB [31]: 1.03 AEB
- average AEB [32]: 0.0151 AEB
Substance: IL-6 capture antibody (R&D Systems MAB206)

- average AEB [33]: 0.0439 AEB
- average AEB [34]: 0.0395 AEB
- average AEB [35]: 0.0296 AEB
- average AEB [36]: 1.41 AEB
- average AEB [37]: 0.0208 AEB
- average AMB [38]: 0.0281 AMB
- average AEB [39]: 0.0218 AEB
- average AMB [40]: 0.0097 AMB
- average AEB [41]: 0.0194 AEB
- average AEB [42]: 2.05 AEB
- average AMB [43]: 0.561 AMB
- average AMB [44]: 0.0045 AMB
- average AEB [45]: 0.0765 AEB
- average AMB [46]: 0.0042 AMB
- average AEB [47]: 0.05 AEB
- average AEB [48]: 0.386 AEB
- average AEB [49]: 0.107 AEB
- average AEB [50]: 0.0355 AEB
- average AMB [51]: 0.0058 AMB
- average AEB [52]: 0.306 AEB
- average AMB [53]: 0.121 AMB
Substance: IL-10 capture antibody (Biolegend 506802)
